Source: PMC3840697 (Angewandte Chemie (International Ed. in English), 2013)

Target: T1, exosome core with Rrp42 N9A (state A mutant) (UniProt Q9UXC2 1-248; Q9UXC0 1-275, N9A)
T1 sequence 1: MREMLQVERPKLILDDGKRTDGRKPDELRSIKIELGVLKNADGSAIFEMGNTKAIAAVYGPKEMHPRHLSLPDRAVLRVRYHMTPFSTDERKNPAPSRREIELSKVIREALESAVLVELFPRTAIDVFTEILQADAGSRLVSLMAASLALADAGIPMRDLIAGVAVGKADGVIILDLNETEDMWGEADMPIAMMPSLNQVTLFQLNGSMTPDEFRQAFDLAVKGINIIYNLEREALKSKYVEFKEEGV
T1 sequence 2: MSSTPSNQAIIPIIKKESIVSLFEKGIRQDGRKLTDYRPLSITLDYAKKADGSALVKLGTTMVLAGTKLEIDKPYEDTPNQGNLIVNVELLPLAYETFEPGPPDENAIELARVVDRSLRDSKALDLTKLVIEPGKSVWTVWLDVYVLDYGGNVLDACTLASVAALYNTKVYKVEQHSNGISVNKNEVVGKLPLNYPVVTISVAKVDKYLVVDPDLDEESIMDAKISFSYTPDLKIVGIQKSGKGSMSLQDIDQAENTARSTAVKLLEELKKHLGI
Assay: methyl TROSY NMR spectra of free and cap-bound exosome core

binding result: binds
B1: Rrp4 (exosome cap protein) (natural protein)
chain: MNMSQSQKIVLQPRSIVVPGELLAEGEFQIPWSPYILKINSKYYSTVVGLFDVKDTQFEVIPLEGSFYYPKINDIVIGLVEDVEIYGWVVDIKAPYKAYLPASNLLGRSINVGEDLRRYLDVGDYVIARIENFDRSIDPVLSVKGKDLGRVSNGIVIDIMPVKVPRVIGKNKSMYETLTSKSGCSIFVANNGRIWATCPSRFSEEILIEAIRKIENESHIKGLTDRIKQFIEEKLGERNASSGETKTNS
